Changes are numbered by the printed parent chain. Blank lines part the entries; values can stand above or below the binder they belong to.
Tests used:
[1] = target: T1, mouse penumbra protein (mpen), native, on primary mouse B lymphocytes (mouse, UniProt Q8R3S2 1-283); experiment: flow cytometry on Balb/C mouse bone marrow cells, FITC-conjugated mAb
T1 construct: whole, on cells; This form has no tag, unlike m5; also called cell surface pen
T1 sequence (looked up): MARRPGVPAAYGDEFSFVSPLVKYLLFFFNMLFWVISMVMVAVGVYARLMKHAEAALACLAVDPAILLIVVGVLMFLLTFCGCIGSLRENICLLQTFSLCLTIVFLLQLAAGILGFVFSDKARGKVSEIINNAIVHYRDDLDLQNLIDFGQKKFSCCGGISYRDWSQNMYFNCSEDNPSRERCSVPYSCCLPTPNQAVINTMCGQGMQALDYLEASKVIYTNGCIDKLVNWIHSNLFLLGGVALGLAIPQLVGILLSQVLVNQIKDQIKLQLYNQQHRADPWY
Method: Flow cytometry data were analyzed using FloJo v.10 software. The number in each quadrant denotes %. FIG. 5A: A dot plot of isotype-PE vs. isotype-FITC. FIG. 5B: A dot plot of isotype-PE vs. A296.2-FITC. FIG. 5C: Anti-CD19-PE vs. isotype-FITC. […] FIG. 5E: Anti-B220-PE vs. isotype-FITC. […] FIG. 5G: Anti-CD20-PE vs. isotype-FITC. […] FIG. 5I: Anti-CD138-PE vs. isotype-FITC. […] FIG. 5K: Anti-CD117-PE vs. isotype-FITC. […] FIG. 5M: TER119-PE vs. isotype-FITC. […] FIG. 5O: Anti-Mac-1-PE vs. isotype-FITC. […] Data shown were lymphocyte-gated.
(§1) The medium used for cell staining was Hank's Balanced Salt Solution (HBSS) supplemented with heat-inactivated FBS (5% vol/vol) and sodium azide (0.09% wt/vol). This solution is known as “H5FAH”. All staining and washing were performed at 4° C. The flow cytometer used was a DxP flow cytometer with CYTOTEK™ upgrade (Cytotek). Analysis of flow cytometry data was performed using FLOWJO™ v. 9 (FIG. 3 only) or v.10 (Beckton-Dickinson)(BD). Fluorescence microscopy was performed using a microscope equipped with a digital camera.

[2] = target: T2, mouse penumbra protein (mpen) fused to a C-terminal Myc-Hisx6 tag, on BaF3/mpen cells (mouse, UniProt Q8R3S2 1-283); experiment: flow cytometry, hybridoma supernatant on live BaF3/mpen, GAMIgs-FITC detection
T2 construct: whole, on cells; Stably expressed in the pen-negative mouse pre-B cell line BaF3; also called cell-surface pen; tetraspanin 33; not shown: Myc-Hisx6 tag from vector pcDNA3.1 at the intracellular C-terminus
T2 sequence (looked up): T1 sequence (looked up)
Method: as §1

[3] = target: T3, human penumbra protein (hpen) (human, UniProt Q86UF1 1-283); experiment: flow cytometry on human blood mononuclear cells, FITC-conjugated mAb
T3 construct: whole, on cells; Untagged; also called BaF3/hpen; tetraspanin 33
T3 sequence (looked up): T1 sequence (looked up) with G6R, V7A, Y11S, D13E, I103A, R163K, N195D, L210F, V259I

[4] = target: T2, mouse penumbra protein (mpen) fused to …; experiment: indirect immunofluorescence microscopy on live BaF3/mpen
[5] = target: T3, human penumbra protein (hpen); experiment: immunofluorescence microscopy on live BaF3/hpen
[6] = target: T2, mouse penumbra protein (mpen) fused to …; experiment: immunofluorescence microscopy on live BaF3/mpen

binding result [1]: binds
binding result [2]: binds
binding result [3]: binds
B1: mAb 29A6.2 (antibody, V domains shown)
VH: QVQLKQSGPGLVQPSQSLSITCTVSGFSLTSYGVHWVRQSPGKGLEWLGVIWSGGSTDYNAAFISRLSISKDNSKSQVFFKMNSLQADDTAIYYCATFDYWGQGTTLTVSS
VL: DIVITQDELSNPVTSGESVSISCRSSKSLLYKDGKTYLNWFLQRPGQSPQLLIYLMSTRASGVSDRFSGSGSGTDFTLEISRVKAEDVGVYYCQQLVEYPFTFGSGTKLEIKR
notes: Tested as hybridoma supernatant or as purified, FITC-conjugated antibody; also called 29A6.2-FITC; hybridoma 29A6.2

binding result [4]: binds
binding result [5]: binds
binding result [1]: binds
B2: mAb 41B10.13 (antibody, V domains shown)
VH: QVQLKESGPGLVAPSQSLSITCTVSGFSLTSYAISWVRQPPGKGLEWLGVIWTGGGTNYNSALKSRLSISKDNSKSQVFLKMNSLQTDDTARYYCAREGNAYYSNYESTAYWGQGTLVTVSA
VL: B1 VL
notes: The first 19 amino acids of each entry are signal peptides and are left out; Tested as hybridoma supernatant or as purified, FITC-conjugated antibody; also called 41B10.13-FITC; 41B10-FITC

binding result [5]: binds
binding result [1]: binds
binding result [6]: binds
B3: mAb 59E6.8 (antibody, V domains shown)
VH: QVQLQQPGAELVKPGASVKMSCKASGYTFTSYWITWVKQRPGQGLEWIGDIYPGSGSTNYNEKFKSKATLTVDTSSSTAYMQLSSLTSEDSAVYYCARDYYGSSYDYWGQGTTLTVSS
VL: B1 VL
notes: The first 19 amino acids of each entry are signal peptides and are left out; Tested as hybridoma supernatant or as purified, FITC-conjugated antibody; also called 59E6.8-FITC; anti-pen mAb

Source: US20180362660A1 (published 2018)
